Values of other authors as cited in publication PMC5433096.
pKd: −log10 of the molar value.

Target: PhoB (Escherichia coli) (UniProt P0AFJ5)
UniProt P0AFJ5, sequence (P0AFJ5 whole entry): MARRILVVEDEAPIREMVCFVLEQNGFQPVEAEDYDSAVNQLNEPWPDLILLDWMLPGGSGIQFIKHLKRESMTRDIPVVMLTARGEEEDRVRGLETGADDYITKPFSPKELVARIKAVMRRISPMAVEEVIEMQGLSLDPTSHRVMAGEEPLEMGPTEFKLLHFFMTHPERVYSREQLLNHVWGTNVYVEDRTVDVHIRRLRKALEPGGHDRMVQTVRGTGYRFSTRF

pKd: 5.52
Substance: PhoR (from UniProt P08400)
